Blank lines part the entries; values can stand above or below the binder they belong to. Square brackets hold non-standard residues; d marks the D form. * marks the point of attachment. Butanoyl(4-Ph) = O=C(CCCc1ccccc1)*; Butanoyl(4-ethynyl) = C#CCCCC(=O)*
Columns and labels:
[1] = target: human melanocortin 1 receptor (human) (UniProt Q01726); assay: time-resolved lanthanide fluorescence competitive binding; reference 1-targeted UXL micelles
[2] = target: human melanocortin 1 receptor (human) (UniProt Q01726); assay: time-resolved lanthanide fluorescence competitive binding vs Eu-labeled NDP-alpha-MSH; 10% ligand loading
[3] = target: human melanocortin 1 receptor (human) (UniProt Q01726); assay: competitive binding vs Eu-NDP-alpha-MSH, time-resolved fluorescence, HCT116/hMC1R cells; concentration normalized to the targeting group

human melanocortin 1 receptor (human), sequence (Q01726 whole entry): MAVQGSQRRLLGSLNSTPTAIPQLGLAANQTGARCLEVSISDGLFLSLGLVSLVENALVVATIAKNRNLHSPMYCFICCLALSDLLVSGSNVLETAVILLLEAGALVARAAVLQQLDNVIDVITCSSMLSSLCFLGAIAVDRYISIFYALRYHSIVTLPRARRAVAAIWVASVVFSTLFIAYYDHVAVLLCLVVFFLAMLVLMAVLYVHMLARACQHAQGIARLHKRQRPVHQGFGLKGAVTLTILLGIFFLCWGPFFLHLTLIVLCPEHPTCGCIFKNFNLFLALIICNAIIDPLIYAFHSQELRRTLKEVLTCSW

fold lower Ki than the corresponding UXL micelles [1]: 4 times
Ki [2]: 2.9 nM
Binder: {Butanoyl(4-Ph)}-H[dF]RWGK(Butanoyl(4-ethynyl))-NH2 (peptide, part only; not given: crosslinked triblock polymer, part only, also: Fe(III)-crosslinked micelle)

Ki [2]: 12 nM
Binder: {Butanoyl(4-Ph)}-H[dF]RWGK(Butanoyl(4-ethynyl))-NH2 (peptide, part only; not given: uncrosslinked triblock polymer, part only, also: uncrosslinked micelle)

Ki [3]: 11.5 nM
B1: 4-targeted triblock polymer micelles (peptide, part only; not given: triblock polymer, part only)
peptide: {Butanoyl(4-Ph)}-H[dF]RWGK(Butanoyl(4-ethynyl))-NH2
modifications: not fully specified; printed as 4-phenylbutyryl-His-DPhe-Arg-Trp-Gly-Lys(hex-5-ynoyl)-NH2; also: Lys hex-5-ynoyl clicked via 1,2,3-triazole to PEG azide of triblock polymer micelle

From US20160175384A1
